The target of experiment [1] is T1, Human serum albumin (HSA) (human, UniProt P02768 25-609).
T1 construct: also called human albumin; recombinant human albumin
Put plainly: ELISA, albumin coated, sdAb fusion titrated, anti-human Fc HRP. In general terms: In an ELISA, binding on a coated surface is turned into a signal by an enzyme label.
Experimental: (§1) Medisorp plates were coated with albumin protein at 2 μg/ml, 50 μl/well at 4° C. overnight (human, murine, and rat albumin-Sigma, cynomolgus monkey albumin-Abcam). 1× Fish Gelatin (blocking agent, Bethyl Laboratories) was added to albumin-coated wells followed by a 1 hour incubation at RT. Titrations of sdAb fusion proteins (starting at 100 nM, across 1:3 or down 1:4) were added and incubated for 1 hour at RT. Plates were washed 3 times with 0.1% D-PBST, and then anti-human Fc HRP antibody (1:2000 in 0.1% D-PBST, Jackson) was added and incubated for 30 minutes at RT. Plates were washed 3 times with 0.1% D-PBST, and then TMB substrate was added. Absorbance at 650 nm was read on a plate reader (Molecular Devices) and data were plotted using equation one site-total binding (Model: Y=Bmax*X/(Kd+X)+NS*X+Background, GraphPad Prism).

The target of experiment [2] is T2, Murine serum albumin (MSA) (mouse, UniProt P07724 25-608).
T2 construct: Bought protein (Sigma); also called murine albumin; mouse albumin
The description is as above.
Experimental: as §1

For experiment [3], the target named is T3, Cynomolgus monkey serum albumin (CSA) (cynomolgus monkey, UniProt A2V9Z4 25-608).
T3 construct: Bought protein (Abcam); also called cynomolgus monkey albumin
Described as above.
Experimental: as §1

In experiment [4] the target is T4, Rat serum albumin (RSA) (rat, UniProt P02770 25-608).
T4 construct: Bought protein (Sigma); also called rat albumin
The description is as above.
Experimental: as §1

The target of experiment [5] is T4, Rat serum albumin (RSA). Put plainly: ELISA on coated rat albumin, anti-human Fc HRP, A650, one site-total binding fit.
Experimental: as §1
The target of experiment [6] is T1, Human serum albumin (HSA). Put plainly: ELISA on coated human albumin, anti-human Fc HRP, A650, one site-total binding fit.
Experimental: as §1
Experiment [7] deals with T2, Murine serum albumin (MSA). Nature of the experiment: ELISA on coated murine albumin, anti-human Fc HRP, A650, one site-total binding fit.
Experimental: as §1
The target of experiment [8] is T3, Cynomolgus monkey serum albumin (CSA). Nature of the experiment: ELISA on coated cynomolgus monkey albumin, anti-human Fc HRP, A650, one site-total binding fit.
Experimental: as §1
The target of experiment [9] is T4, Rat serum albumin (RSA). Put plainly: ELISA on coated rat albumin, anti-human Fc HRP, A650, one site-total binding fit. This is another data set of the same source.
Experimental: as §1
The target of experiment [10] is T1, Human serum albumin (HSA). Put plainly: ELISA on coated human albumin, anti-human Fc HRP, A650, one site-total binding fit. This is another data set of the same source.
Experimental: as §1
In experiment [11] the target is T2, Murine serum albumin (MSA). Put plainly: ELISA on coated murine albumin, anti-human Fc HRP, A650, one site-total binding fit. The source holds these as a separate data set.
Experimental: as §1
The target in experiment [12] is T3, Cynomolgus monkey serum albumin (CSA). Nature of the experiment: ELISA on coated cynomolgus monkey albumin, anti-human Fc HRP, A650, one site-total binding fit. The source holds these as a separate data set.
Experimental: as §1
The target of experiment [13] is T5, Mouse Fc-tagged human albumin domain III (human, UniProt P02768 405-609, limits assumed).
T5 construct: also called albumin domain 3 (mouse Fc tagged); albumin domain 3; not shown: mouse Fc tag
Nature of the experiment: biolayer interferometry, mouse Fc-tagged human albumin domain III (10 ug/ml) on anti-mouse IgG Fc biosensor, pH 5.

For experiment [14], the target named is T1, Human serum albumin (HSA). Put plainly: ELISA on coated human albumin, pH 7.4, HRP detection antibody, A450.
Experimental: (§2) 96-well ELISA plates were coated with albumin protein in PBS overnight at 4° C., washed with PBS-T and then blocked with 5% milk powder in PBS-T for 1 h at room temperature. Serial dilutions of test articles were prepared in PBS pH 7.4 or a buffer containing 20 mM His, 150 mM NaCl, pH 5.5 and added to the plates. Plates were incubated for 1 h at room temperature. After the incubation cells were washed in the respective buffer and then incubated for 30 min at room temperature with a HRP-conjugated antibody detecting the polypeptides. Plates were washed in their respective buffers and TMB substrate was added and color allowed to develop. TMB substrate was stopped with an equal volume of stop solution (1M H₂SO₄). Absorbance at 450 nm was measured with a 96 well plate reader.
Experiment [15] concerns the target T1, Human serum albumin (HSA). Put plainly: ELISA on coated human albumin, pH 5.5, HRP detection antibody, A450.
Experimental: as §2
Experiment [16] has as its target T1, Human serum albumin (HSA). The experiment is described as above. The source holds these as a separate data set.
Experimental: as §2
Experiment [17] deals with T6, human FcRn on primary human monocytes (PBMC) (human, UniProt P55899 24-365; P16213 21-119).
T6 construct: Endogenous FcRn (with endogenous beta-2 microglobulin) in fixed and permeabilized human PBMC; also called FcRn-expressing human monocytes; FcRn on PBMC subpopulations
Put plainly: flow cytometry, fixed and permeabilized human PBMC, gated monocytes, pH 6, AF647 detection antibody. (In flow cytometry, cells or beads pass a laser one at a time.)
Experimental: (§3) Isolated human PBMC were plated in 96-well plates at 120,000 cells per well and washed with PBS, pH 7.4. Cells were stained with Zombie Aqua to exclude dead cells and with specific fluorescently labeled antibodies against surface lineage markers (CD14, CD16, CD3, CD56, CD19 and HLA-DR) to allow gating on different PBMC subpopulations. After the surface marker staining, cells were fixed and permeabilized using a Foxp3/Transcription Factor Fixation/Permeabilization kit (eBioscience™) according to the manufacturer's recommended protocol. Cells were then resuspended in the buffers described above to generate pH 7.4 or pH 6 conditions and test article staining was carried out as described for CHO cells. After the final wash, binding to FcRn on PBMC subpopulations (Monocytes, B cells or T cells) was measured on a Novocyte-Quanteon Flow Cytometer (Agilent).

The target of experiment [18] is T6, human FcRn on primary human monocytes …. Nature of the experiment: flow cytometry, fixed and permeabilized human PBMC, gated monocytes, pH 7.4, AF647 detection antibody.
Experimental: as §3
The target of experiment [19] is T7, human FcRn extracellular domain (ECD) fused to a transmembrane domain and an intracellular citrine, with … (human).
T7 construct: also called human FcRn overexpressed on CHO cells; FcRn transfected CHO cells
Put plainly: flow cytometry, CHO cells transiently expressing human FcRn ECD-TM-citrine and B2M, pH 6, AF647 detection antibody.
Experimental: (§4) Binding of anti-FcRn VHH polypeptides to human FcRn at neutral (7.4) or endosomal (6) pH was tested by flow cytometry using a CHO-based overexpression system or isolated human peripheral blood mononuclear cells (PBMC).
(§5) CHO cells were plated in 96-well plates at 50,000 cells per well and resuspended in PBS, pH 7.4 or a buffer containing 20 mM His, 150 mM NaCl, pH 6. Serial dilutions of test articles were prepared at 2× the final concentration in the buffers described above (pH 7.4 or pH 6) and added to the cell suspensions. Plates were incubated for 60 minutes at 4° C. After the incubation cells were washed in the respective buffer and then incubated for 30 minutes at 4° C. with a fluorescently labeled (AF647) antibody detecting the VHH polypeptides. Binding of the detection antibody to FcRn on transfected cells (citrine positive) was measured after a final wash using an iQue Screener (Sartorius).

Experiment [20] addresses T7, human FcRn extracellular domain (ECD) …. The description is as above. The source holds these as a separate data set.
Experimental: as §4, §5
Experiment [21] shares this target. Nature of the experiment: flow cytometry, CHO cells transiently expressing human FcRn ECD-TM-citrine and B2M, pH 7.4, AF647 detection antibody.
Experimental: as §4, §5
The target is the same in experiment [22]. The description is as above. This is another data set of the same source.
Experimental: as §4, §5
For experiment [23], the target named is T8, human FcRn/B2m heterodimer protein (human, UniProt P55899 24-297; P61769 21-119, limits assumed).
T8 construct: also called FcRn (ELISA)
Put plainly: ELISA on coated human FcRn/B2m heterodimer, pH 7.4, HRP detection antibody, A450.
Experimental: 96-well ELISA plates were coated with human FcRn/B2m heterodimer protein in PBS overnight at 4° C., washed with PBST and then blocked with 3% BSA in PBST for 1 h at RT. Serial dilutions of test articles were prepared in PBST pH 7.4 and added to the plates. Plates were incubated for 1 h at room temperature. After the incubation cells were washed in the PBST and then incubated for 1 h at room temperature with a horse radish peroxidase (HRP)-conjugated antibody detecting the polypeptides. Plates were washed with PBS-T followed by addition of TMB substrate and color allowed to develop. TMB substrate was stopped with an equal volume of stop solution (1M H₂SO₄). Absorbance at 450 nm was measured with a 96 well plate reader (Emax, Molecular Devices). All data were plotted and analyzed using GraphPad Prism analysis software.

The target of experiment [24] is T7, human FcRn extracellular domain (ECD) …. Nature of the experiment: flow cytometry, HEK 293 cells transiently expressing human FcRn ECD-TM-citrine and B2M, pH 6; blocked ligand: biotinylated human IgG at 1 µM, detected with streptavidin-AF647.
Experimental: 50,000 transiently transfected HEK 293 cells were plated in 96-well plates and resuspended in 20 mM His, 150 mM NaCl, pH 6. Serial dilutions of test articles were prepared at 2× the final concentration in the buffer described above and added to the cell suspensions. Plates were incubated for 60 minutes at 4° C. […] Cells were then washed in the buffer described above and subsequently incubated for 30 minutes at 4° C. with a fluorescently labeled (AF647) streptavidin to detect IgG binding to FcRn. Binding of streptavidin to cells expressing FcRn (citrine positive) was measured after a final wash using an iQue Screener (Sartorius). The data were plotted and analyzed using GraphPad Prism analysis software.

T1 sequence (P02768 25-609): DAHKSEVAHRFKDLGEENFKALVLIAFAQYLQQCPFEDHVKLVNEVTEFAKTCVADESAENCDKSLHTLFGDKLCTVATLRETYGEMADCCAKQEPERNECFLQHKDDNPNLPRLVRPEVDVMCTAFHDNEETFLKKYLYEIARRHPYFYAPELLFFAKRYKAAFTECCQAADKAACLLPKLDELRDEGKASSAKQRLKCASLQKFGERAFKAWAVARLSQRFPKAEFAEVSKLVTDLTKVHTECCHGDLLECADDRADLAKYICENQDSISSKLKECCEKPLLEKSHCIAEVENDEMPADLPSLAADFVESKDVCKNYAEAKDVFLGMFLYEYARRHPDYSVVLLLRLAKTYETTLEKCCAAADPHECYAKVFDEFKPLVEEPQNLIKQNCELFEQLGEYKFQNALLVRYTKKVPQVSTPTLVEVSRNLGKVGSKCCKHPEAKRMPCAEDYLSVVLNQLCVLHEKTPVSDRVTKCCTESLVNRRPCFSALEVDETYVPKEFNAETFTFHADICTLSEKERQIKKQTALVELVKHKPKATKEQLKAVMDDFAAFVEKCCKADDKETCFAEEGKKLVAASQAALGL
T3 sequence (A2V9Z4 25-608): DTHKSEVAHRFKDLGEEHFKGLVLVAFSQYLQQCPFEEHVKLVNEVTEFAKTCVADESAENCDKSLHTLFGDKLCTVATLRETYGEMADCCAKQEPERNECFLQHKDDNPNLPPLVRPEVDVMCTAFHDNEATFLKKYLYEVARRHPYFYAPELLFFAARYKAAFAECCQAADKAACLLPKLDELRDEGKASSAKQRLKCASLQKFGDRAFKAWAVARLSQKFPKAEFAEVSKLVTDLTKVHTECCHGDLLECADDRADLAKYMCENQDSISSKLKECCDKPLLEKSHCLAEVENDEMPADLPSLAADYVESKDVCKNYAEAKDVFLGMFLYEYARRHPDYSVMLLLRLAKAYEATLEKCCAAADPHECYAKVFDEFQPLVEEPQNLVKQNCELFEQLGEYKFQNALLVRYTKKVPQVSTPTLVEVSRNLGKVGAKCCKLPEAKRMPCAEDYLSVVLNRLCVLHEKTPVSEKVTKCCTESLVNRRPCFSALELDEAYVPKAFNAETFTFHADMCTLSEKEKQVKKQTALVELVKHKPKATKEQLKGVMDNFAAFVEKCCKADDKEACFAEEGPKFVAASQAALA
T4 sequence (P02770 25-608): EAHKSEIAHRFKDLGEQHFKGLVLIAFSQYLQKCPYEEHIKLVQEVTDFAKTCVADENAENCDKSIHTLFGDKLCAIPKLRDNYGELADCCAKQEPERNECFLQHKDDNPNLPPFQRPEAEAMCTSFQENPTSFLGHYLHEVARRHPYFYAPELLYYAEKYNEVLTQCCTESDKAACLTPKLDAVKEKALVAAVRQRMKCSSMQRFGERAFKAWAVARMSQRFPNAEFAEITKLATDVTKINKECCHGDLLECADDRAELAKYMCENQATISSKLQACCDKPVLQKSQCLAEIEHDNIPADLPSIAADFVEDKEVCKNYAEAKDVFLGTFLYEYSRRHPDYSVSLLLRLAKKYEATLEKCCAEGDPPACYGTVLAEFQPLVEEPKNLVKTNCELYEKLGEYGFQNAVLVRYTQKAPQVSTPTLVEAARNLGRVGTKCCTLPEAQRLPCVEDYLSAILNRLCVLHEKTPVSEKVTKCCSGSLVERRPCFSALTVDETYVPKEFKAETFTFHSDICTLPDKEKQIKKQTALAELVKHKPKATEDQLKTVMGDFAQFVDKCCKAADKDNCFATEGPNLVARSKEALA
T7 sequence (chain, as listed by the source limits assumed, chain 1 of 2): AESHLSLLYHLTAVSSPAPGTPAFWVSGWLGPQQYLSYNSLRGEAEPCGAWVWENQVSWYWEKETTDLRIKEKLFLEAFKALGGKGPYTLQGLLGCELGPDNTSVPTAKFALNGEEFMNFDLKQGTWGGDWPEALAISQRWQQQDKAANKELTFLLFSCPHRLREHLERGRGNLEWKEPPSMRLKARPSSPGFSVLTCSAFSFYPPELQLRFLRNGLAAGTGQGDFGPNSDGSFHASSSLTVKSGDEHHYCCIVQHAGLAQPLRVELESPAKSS
T7 sequence (b2m, as listed by the source limits assumed, chain 2 of 2): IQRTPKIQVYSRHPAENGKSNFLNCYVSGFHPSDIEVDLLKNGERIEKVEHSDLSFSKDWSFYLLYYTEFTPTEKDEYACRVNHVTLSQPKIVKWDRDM
T6 sequence (P55899 24-365 limits assumed, chain 1 of 2): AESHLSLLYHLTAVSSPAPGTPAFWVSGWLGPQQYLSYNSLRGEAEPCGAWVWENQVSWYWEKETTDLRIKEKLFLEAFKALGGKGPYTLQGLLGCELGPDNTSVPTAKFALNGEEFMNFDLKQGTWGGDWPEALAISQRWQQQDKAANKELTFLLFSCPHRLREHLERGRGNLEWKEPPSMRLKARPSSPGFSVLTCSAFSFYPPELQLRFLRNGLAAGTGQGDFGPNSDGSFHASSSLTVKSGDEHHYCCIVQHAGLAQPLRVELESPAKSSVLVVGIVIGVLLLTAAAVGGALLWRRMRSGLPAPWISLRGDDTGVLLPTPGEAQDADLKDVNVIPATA
T6 sequence (P16213 21-119 limits assumed, chain 2 of 2): as the sequence (b2m, as listed by the source limits assumed, chain 2 of 2) above
T8 sequence (P55899 24-297 limits assumed, chain 1 of 2): as the sequence (chain, as listed by the source limits assumed, chain 1 of 2) above
T8 sequence (P61769 21-119 limits assumed, chain 2 of 2): as the sequence (b2m, as listed by the source limits assumed, chain 2 of 2) above
T5 sequence (P02768 405-609 limits assumed): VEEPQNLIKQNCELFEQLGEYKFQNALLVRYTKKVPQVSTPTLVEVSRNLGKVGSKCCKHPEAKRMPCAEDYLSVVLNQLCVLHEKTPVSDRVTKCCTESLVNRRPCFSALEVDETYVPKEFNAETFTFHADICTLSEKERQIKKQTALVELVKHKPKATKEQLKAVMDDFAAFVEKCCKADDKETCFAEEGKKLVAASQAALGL

B1: cx5009 (hz4A01v51-NNT-hFc) (Fc fusion)
chain: EVQLVESGGGEVQPGGSLRLSCAASGFTFSTSGMVWVRQAPGKGLEWVSTISDDARITVYAESVKGRFTISRDNAKNTVYLQMNSLRAEDTAVYYCATYRAGSRIGSYEDYYRGQGTLVTVKPGGGGPSVFLFPPKPKDTLMISRTPEVTCVVVDVSHEDPEVKFNWYVDGVEVHNAKTKPREEQYNSTYRVVSVLTVLHQDWLNGKEYKCKVSNKALPAPIEKTISKAKGQPREPQVYTLPPSRDELTKNQVNLTCLVKGFYPSDIAVEWESNGQPENNYKTTPPVLDSDGSFFLNSTLTVDKSRWQQGNVFSCSVMHEALHNHYTQKSLSLSPGSGGGGSGGGGS
notes: also called humanized hz4A01v51; hx4A01v51
For orientation: Kd means the concentration at which binding is half-saturated. In the case of B1, the Kd in experiment [1] was < 300 pM; in experiment [2] it was < 300 pM; in experiment [3] it was < 300 pM; in experiment [4], < 300 pM; in experiment [5], 234 pM; in [6] it was 195 pM. Besides, the results for the Kd in experiment [7] and in experiment [8] were 207 pM and 189 pM, respectively. In addition, the maximal binding in experiment [1], in [2], in experiment [3] and in experiment [4] was > 90% each time.

B2: 4A01-NNT-hFc (Fc fusion)
chain: QVQLQESGGGLVQPGGSLRLSCAASGFAFSTSGMVWVRQATGKGLEWVSTISDDSRIIRYADSVNGRFTISRDNAENTLYLLMNSLKPEDTAVYYCATYRAGSRIGSYEDYYRGQGTQVTVSSGGPSVFLFPPKPKDTLMISRTPEVTCVVVDVSHEDPEVKFNWYVDGVEVHNAKTKPREEQYNSTYRVVSVLTVLHQDWLNGKEYKCKVSNKALPAPIEKTISKAKGQPREPQVYTLPPSRDELTKNQVNLTCLVKGFYPSDIAVEWESNGQPENNYKTTPPVLDSDGSFFLNSTLTVDKSRWQQGNVFSCSVMHEALHNHYTQKSLSLSPG
notes: Monomeric sdAb-Fc fusion (Fc S364N, Y407N, K409T = NNT); also called 1m4A01; anti-albumin sdAb 4A01
With B2, the Bmax is 1.24 A650 in experiment [9], 1.34 A650 in [10], 1.26 A650 in experiment [11] and 1.27 A650 in experiment [12]. Besides, the Kd in experiment [9] came out at 144 pM; in experiment [5], 182 pM; in [10], 105 pM; in experiment [6], 170 pM; in experiment [11], 114 pM; in [7] it was 193 pM. The Kd was determined as 113 pM in [12] and 162 pM in experiment [8]. The binding result in experiment [13] was “no binding”.

B3: cx11558 (B10a.v2.1 VHH x hz4A01v51 VHH) (bispecific antibody)
chain: EVQLLESGGGEVQPGGSLRLSCAASGSIANVDLMAWHRQAPGKQREPIAVINDAGSTYYAESVKGRFTISRDNAKNTLYLQMNSLRAEDTAVYYCNTATWRGGERYADWGQGTLVTVKPGSGGGSEVQLVESGGGEVQPGGSLRLSCAASGFTFSTSGMVWVRQAPGKGLEWVSTISDDARITVYAESVKGRFTISRDNAKNTVYLQMNSLRAEDTAVYYCATYRAGSRIGSYEDYYRGQGTLVTVKPGG
The term EC50 (read off the curve) denotes the midpoint of the concentration-response curve. On to B3, for which the “EC50 (read off the curve)” value in experiment [14] is ~300 pM; in [15], ~60 pM; in [16], ~60 pM; in [17], ~5000 pM; in [18], ~4000 pM; in [19], ~400 pM. Further, the results for the “EC50 (read off the curve)” value in experiment [20], in [21] and in experiment [22] were ~400 pM, ~500 pM and ~500 pM, respectively.

B4: cx11383 (B10a.v1 VHH x hz4A01v51 VHH) (bispecific antibody)
chain: EVQLLESGGGEVQPGGSLRLSCTASGSIANVDMMAWHRQAPGKQREPIAVINDGGSTSYADSVKGRFTISRDNAKNTLYLQMSSLRAEDTAVYYCNTATWRGGERYADWGQGTLVTVKPGSGGGSEVQLVESGGGEVQPGGSLRLSCAASGFTFSTSGMVWVRQAPGKGLEWVSTISDDARITVYAESVKGRFTISRDNAKNTVYLQMNSLRAEDTAVYYCATYRAGSRIGSYEDYYRGQGTLVTVKPGG
Take B4: the binding result in experiment [23] is “binds”. The “IC50 (read off the curve)” value in experiment [24] is ~7000 pM.

B5: cx11385 (B10a.v1 VHH x B10a.v1 VHH x hz4A01v51 VHH) (bispecific antibody)
chain: EVQLLESGGGEVQPGGSLRLSCTASGSIANVDMMAWHRQAPGKQREPIAVINDGGSTSYADSVKGRFTISRDNAKNTLYLQMSSLRAEDTAVYYCNTATWRGGERYADWGQGTLVTVKPGSGGGSEVQLLESGGGEVQPGGSLRLSCTASGSIANVDMMAWHRQAPGKQREPIAVINDGGSTSYADSVKGRFTISRDNAKNTLYLQMSSLRAEDTAVYYCNTATWRGGERYADWGQGTLVTVKPGSGGGSEVQLVESGGGEVQPGGSLRLSCAASGFTFSTSGMVWVRQAPGKGLEWVSTISDDARITVYAESVKGRFTISRDNAKNTVYLQMNSLRAEDTAVYYCATYRAGSRIGSYEDYYRGQGTLVTVKPGG
As to B5, the “EC50 (read off the curve)” value in experiment [23] was ~70 pM. Further, the “IC50 (read off the curve)” value in [24] is ~3000 pM.

The values are drawn from patent publication US20250353911A1 (INHIBRX BIOSCIENCES, published 2025).
